Experimental data published in the supplement of paper PMC9170038.

Tested on: MS2 coat protein
Test: apparent KD of MS2 coat protein; designed switch direction (-1 OFF switch, 1 ON switch): -1; higher = weaker reporter binding
Method in brief: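 The apparent KD reported per design is the median over clusters of curve fits to normalised cluster fluorescence. The RNA switches were transcribed on Illumina chips by stalled E. coli RNA polymerase. SNAP-549-labelled MS2 coat protein was titrated from 0.7 or 1.5 nM, doubling up to 3 µM, in Tris-HCl pH 7.5 buffer containing KCl, MgCl2, BSA, DTT, tRNA and Tween-20, with no input, 200 uM small-molecule ligand, or an oligonucleotide input.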

[1] = Eterna round: R95, input ligand: FMN 200 uM
[2] = Eterna round: R95, input ligand: microRNA oligo, concentration not stated
[3] = Eterna round: R95, input ligand: none
[4] = input ligand: microRNA oligo, concentration not stated

Row | Sequence | apparent KD of MS2 coat protein [1] [µM] | apparent KD of MS2 coat protein [2] [µM] | apparent KD of MS2 coat protein [3] [µM] | apparent KD of MS2 coat protein (input ligand: FMN 200 uM) [µM] | apparent KD of MS2 coat protein (input ligand: none) [µM] | apparent KD of MS2 coat protein [4] [µM]
1 | AAGUACCGUCACGAUAGUGAUGGUACAACAAGCGAAUGUACAUGAGGAUCACCCAUGUCCUCUUUUGCUCGUCUUAU [Sensor 3 - 97] (puzzle: Sensor v3, turn-off variant 2) | 0.13 | 0.0319 | 0.155 |  |  | 
2 | GGCAUGCAAGGAUAUACUUACGGUGAUGUUCGAAGCUUUCUACUUGAGGAUCACCCAAGUAGAAGGUGCAUGCC [jl-ex2.4.75 ViennaUCT mod] (Eterna round: R97, puzzle: Exclusion 2) |  |  |  | 0.0105 | 0.0211 | 
3 | CCACGUCCGUACGUAUACUUGUCUCCUGAAAGAAAGGGCACAUGAGGAUCACCCAUGUUUUUGCUCGUCUUAUGAGC [JR_Sensorv2_tov2_Sub714] (Eterna round: R96, puzzle: Sensor v2, turn-off variant 2) |  |  |  | 0.0204 | 0.0228 | 0.0409
4 | UUGUACAUAGGAUAUAGUUGUUUCUACAUGAGGAUCACCCAUGUUAUUCCUCUCUCCCUUCUAGAAGGAUGUUUUU [JR_E5_Sub006] (puzzle: Exclusion 5) |  | 0.0436 |  |  |  | 
5 | GAUUAUGCGAGCUUUAGGGACAUGAGGAUCACCCAUGUUCGUCUUAUUGGUCUGAAUACACUGACAUACCUAAAUCU [JMF 56] (puzzle: Sensor v3, turn-off variant 1) | 0.0166 | 0.0218 | 0.0159 |  |  | 
6 | AUAAUGUAAGGAUAUCAGUCGUACAGCUUCGGCUGUACGACUGAGAAGGUACAUGAGGAUCACCCAUGUGGUCA [E4/9-A1] (Eterna round: R97, puzzle: Exclusion 4) |  |  |  | 0.0522 | 0.886 | 
7 | GUGUAGUAAGGAUAUAGAAAGAGGGAGUAAGAUAGAGAGUUCUAGAAGGUACAUGAGGAUCACCCAUGUUGGAG [JR_Exclu4_Sub082] (puzzle: Exclusion 4) | 0.0249 | 0.0289 | 0.0278 |  |  | 
8 | CAGAGGAGACGGAGAUCCAACAUGAGGAUCACCCAUGUCUCAAAAGCUUUUUGCUUGUCUUAUCCUCCUCUCUUCAC [Mat - Sensor, turn-off var - Eli Mod - D59] (Eterna round: R97, puzzle: Sensor, turn-off variant 1) |  |  |  | 0.0271 | 0.0281 | 
9 | AACUCCUCAGGAUAUCUGAAAAUGGACAUGAGGAUCACCCAUGUGAAAGUCACAUCCGGAGGAGAAGGGAGGAGAA [Diororlera] (Eterna round: R97, puzzle: Exclusion 5) |  |  |  | 0.0446 | 0.016 | 
10 | CAGGACUGAGGAUAUGCGCGGACAAGAUCCUCAAUCCCAAAACAUGAGGAUCACCCAUGUAGAAGGCAGAAAUA [Edbein] (puzzle: Exclusion 2) | 0.0329 | 0.0354 | 0.031 |  |  | 
11 | CAGUACUGAGGAUAUACAUGAGGAUCACCCAUGUGUUCCAGCUAGGAGACUAGCAAAAGUAGAAGGCAGUACUG [salish99_ex3_r3_074] (puzzle: Exclusion 3) |  | 0.0235 |  |  |  | 
12 | UUUAUGUAAGGAUAUAUGAGUCACGGAAAUAAACCGUGAAGAUAGAAGGUACAUGAGGAUCACCCAUGUAAGGC [Mod of Anonveat 8 - Jieux - Exclusion 4] (Eterna round: R97, puzzle: Exclusion 4) |  |  |  | 0.0401 | 0.0229 | 
13 | AGUACUAACACGAAAGUGUUAGUACAACAAGCUUGUGAAACAUGAGGAUCACCCAUGUCCUCAUAAGCUCGUCUUAU [salish99_TOv2_r3_042] (puzzle: Sensor v3, turn-off variant 2) | 0.0137 | 0.463 | 0.0119 |  |  | 
14 | GGUCAAGAGCAGCUCCGCGCUGCCAUUGACCGCUCAUUUACAUGAGGAUCACCCAUGUUUUUUGCUCGUCUUAUUAC [Somabi] (puzzle: Sensor v3, turn-off variant 2) | 0.0185 | 0.0532 | 0.0188 |  |  | 
15 | AAGGAUAGAGGAUAUACAUAGAUACAGAUUCAUGUAGAAUUACAUGAGGAUCACCCAUGUAGAAGGCUAUCCUA [Fiskers Ex 2 - 1] (puzzle: Exclusion 2) |  | 0.285 |  |  |  | 
16 | GGAUCACAUGUUAGGAUAUGCAGGUCCUUGGAUCUGCAGAAGGGACAUGAGGAUCACCCAUGUCAUGAAGAUCC [Mat - Exclusion 4 - Eli Mod - D52] (Eterna round: R97, puzzle: Brourd's mod of Exclusion 4) |  |  |  | 0.0434 | 0.021 | 
17 | AGUACUAUCACGAAAGUGAUAGUACAAUAAACAAGUGAAACAUGAGGAUCACCCAUGUCCUCAUUUGCUCGUCUUAU [Sensor 3 - 1] (puzzle: Sensor v3, turn-off variant 2) | 0.146 | 0.389 | 0.183 |  |  | 
18 | GCAGUAUGAGUUAGGAUAUGAUGAUUUGAAAUGGGUCAGAAGGAACUUGAGGAUCACCCAAGUAAUGAAUUGGU [JR_BMEx4_Sub073] (Eterna round: R97, puzzle: Brourd's mod of Exclusion 4) |  |  |  | 0.0946 | 0.0527 | 
19 | UUUUAACAUGAGGAUCACCCAUGUGAGGAUAUCGAAAUUUAUAUUAAUAUUUAUAUAACGAGAAGGCACAUUUU [JMF 55] (puzzle: Exclusion 1) |  | 0.0653 |  |  |  | 
20 | CGGUCGUCGUGAGGAUAUACAUGAGGAUCACCCAUGUUUCUCGGGUCGGUCGUCCGGUCGGUGGUGUAGAAGGCGCGGUGGCUG [random 3, A 14%] (Eterna round: R96, puzzle: Exclusion NG 2) |  |  |  | 0.125 | 0.1 | 0.0956
21 | UAUUUAUAGCAAGGAUAUGAUUAUUAUUAUUUAUCAGAAGGUGCACAUGAGGAUCACCCAUGUUUUACAAUUUGUAAUUUAAUU [Default title] (Eterna round: R96, puzzle: Exclusion NG 1) |  |  |  |  |  | 0.0311
22 | ACAUGAGGAUCACCCAUGUAAACAUAAUGGCUCAUGUAGAGUCAGGAUAUGCGUGGCGAACAAGCGCAGAAGGGACAAGACUGG [Deportation 25 - Jieux - Exclusion NG 3] (Eterna round: R96, puzzle: Exclusion NG 3) |  |  |  | 0.03 | 0.0272 | 0.0196
23 | GUUUGACAUGAGGAUCACCCAUGUGAGGAUAUCGGCUGGUACGUGUUGGCUGGCAUCUCGAGAAGGCACAUAGG [Exclusion 1 V58] (puzzle: Exclusion 1) |  | 0.109 |  |  |  | 
24 | AUUCAACAUGAGGAUCACCCAUGUGAGGAUAUGCGAGAAUAGACUUCGGUCAGAUAGAGCAGAAGGCGCAGAUA [EX1 #5] (Eterna round: R97, puzzle: Exclusion 1) |  |  |  | 0.022 | 0.0291 | 
25 | AGGUAACAUGAGGAUCACCCAUGUCAGGAUAUCAGUAAGAUUAGAAUAGAGUAGAGGAUGAGAAGGGACUAUAU [Excluse me! 19- Jieux - Exclusion 1] (puzzle: Exclusion 1) |  | 0.0427 |  |  |  | 
26 | UUAAGGAUAGAGGAUAUAUUAAAGAAGGUGGCGAUAGAAGGCUAGACAUGAGGAUCACCCAUGUAAAUUGGGAU [JR_Ex6_Sub068] (Eterna round: R97, puzzle: Exclusion 6) |  |  |  | 0.378 | 0.309 | 
